Paper PMC12158487, “Tracing the aggregation pathway of the scaffold protein DISC1: Structural implications for chronic mental illnesses” (Journal of Structural Biology: X, 2025)
Substitutions are numbered along the chain they refer to. Numbers in names are those of the source. Values belong to the molecule of their own block, whether it stands above or below them. Ends that are not written are not given here.

What was measured:
[1] = molecular target: DISC1 C-region L807-frameshift, His6 fusion (human) (UniProt Q9NRI5); test: ITC; 10 µM His-tagged protein alone in the 200 µL cell, 20 °C, stirred at 300 rpm; heat flow of self-association followed in real time, peak area integrated
[2] = molecular target: the molecule itself; test: as above
[3] = molecular target: T1, DISC1 C-region (WT), His6 fusion (human), Q9NRI5; test: ITC; 10 µM His-tagged WT-C-region alone in the cell, 30 °C; heat flow of self-association followed in real time, peak area integrated; details: remark: other sources report otherwise
T1 chain: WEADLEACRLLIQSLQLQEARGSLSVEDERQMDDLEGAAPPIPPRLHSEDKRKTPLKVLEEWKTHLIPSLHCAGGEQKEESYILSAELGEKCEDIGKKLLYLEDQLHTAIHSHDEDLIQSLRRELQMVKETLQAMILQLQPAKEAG

[4] = molecular target: T1, DISC1 C-region (WT), His6 fusion …; test: ITC; 10 µM His-tagged protein alone in the 200 µL cell, 20 °C, stirred at 300 rpm; heat flow of self-association followed in real time, peak area integrated; details: remark: other sources report otherwise
[5] = molecular target: T1, DISC1 C-region (WT), His6 fusion …; test: dynamic light scattering; 10 µM protein, 20 °C, 500 µL sample, centrifuged at 21,000 x g before measurement; apparent hydrodynamic radii followed over time; details: remark: other sources report otherwise
[6] = molecular target: the molecule itself; test: ITC; one-week-old sample of S704C, 10 µM protein alone in the cell, 20 °C; heat flow of self-association followed in real time, peak area integrated

- dH [1]: -1060 kcal/mol
Molecule: DISC1 C-region L807-frameshift, His6 fusion (from UniProt Q9NRI5 691-807) (domain or fragment)

B1: DISC1 β-core (717-761), His6 fusion (domain or fragment, human, UniProt Q9NRI5 717-761, looked up)
chain: EDERQMDDLEGAAPPIPPRLHSEDKRKTPLKVLEEWKTHLIPSLH
modifications: also: His6 fusion, end not given here
notes: 717-761, numbered in the context of the full-length protein; also called β-core peptide; source: E. coli BL21 (DE3) pLysE T1R, purified (Co2+-NTA)
- dH [2]: -843 kcal/mol

- dH [3]: -264 kcal/mol
- dH [4]: -547 kcal/mol
- stoichiometry N [5]: 4
B2: DISC1 C-region (WT), His6 fusion, Q9NRI5 691-836 (domain or fragment)
chain: T1 chain

B3: DISC1 C-region S704C, His6 fusion (domain or fragment, human, UniProt Q9NRI5 691-836, looked up)
chain: T1 chain with S14C
notes: Disrupted in schizophrenia 1 (DISC1), human, C-region, res; 691-836, numbered in the context of the full-length protein, with S704C; also called S704C C-region; source: E. coli BL21 (DE3) pLysE T1R, purified (Co2+-NTA)
- dH [6]: -869 kcal/mol
- dH [2]: -240 kcal/mol

B4: DISC1 C-region S713E, His6 fusion (domain or fragment, human, UniProt Q9NRI5 691-836, looked up)
chain: T1 chain with S23E
notes: Disrupted in schizophrenia 1 (DISC1), human, C-region, res; 691-836, numbered in the context of the full-length protein, with S713E; in the cited work it may be a phosphomimetic made by people (surmise); also called S713E C-region variant; source: E. coli BL21 (DE3) pLysE T1R, purified (Co2+-NTA)
- dH [2]: -512 kcal/mol
